PMC9154124

Molecular target: chimeric H5 Env: Env_(HXB2) with the V3 loop of Env_(SF162) (HIV-1 strain HXB2 | HIV-1 strain SF162) (UniProt P04578)

**Q.** “Human soluble CD4-183 (sCD4-183) two-domain protein (domain or fragment)” was tested. Which inhibition by sCD4 of the infectivity of HIV-1 pseudotyped with Env (titration, Fig 3A); loss of potency against H4 Env did it give?
**A.** > 50 fold

**Q.** What about the sCD4-induced gp120 shedding from Env-expressing HEK293T cells (Fig 3B); shift of the sCD4 dependence against H4 Env of the same substance?
**A.** > 10 fold
